# Laboratory results published in patent publication US20260263594A1.
# Values joined by “and” are separate entries in the source; they are usually repeats but may differ in a detail not shown here. Equal entries are not always repeated.
# Columns and labels:
# [1] = target: Holo-transferrin (Homo sapiens (Human)) (UniProt P02787); experiment: SPR, Biacore T200, multi-cycle, Tbp-B at 6.17-500 nM; Run-2
# [2] = target: Holo-transferrin (Homo sapiens (Human)) (UniProt P02787); experiment: SPR, Biacore T200, multi-cycle, Tbp-B at 6.17-500 nM; Run-3
# [3] = target: Holo-transferrin (Homo sapiens (Human)) (UniProt P02787); experiment: SPR, Biacore T200, multi-cycle, Tbp-B at 6.17-500 nM; Run-1
# [4] = target: Holo-transferrin (Homo sapiens (Human)) (UniProt P02787); experiment: SPR, Biacore T200, multi-cycle, Tbp-B at 6.17-500 nM; average of 3 runs
# UniProt P02787, sequence (P02787 20-698 limits assumed, form in doubt): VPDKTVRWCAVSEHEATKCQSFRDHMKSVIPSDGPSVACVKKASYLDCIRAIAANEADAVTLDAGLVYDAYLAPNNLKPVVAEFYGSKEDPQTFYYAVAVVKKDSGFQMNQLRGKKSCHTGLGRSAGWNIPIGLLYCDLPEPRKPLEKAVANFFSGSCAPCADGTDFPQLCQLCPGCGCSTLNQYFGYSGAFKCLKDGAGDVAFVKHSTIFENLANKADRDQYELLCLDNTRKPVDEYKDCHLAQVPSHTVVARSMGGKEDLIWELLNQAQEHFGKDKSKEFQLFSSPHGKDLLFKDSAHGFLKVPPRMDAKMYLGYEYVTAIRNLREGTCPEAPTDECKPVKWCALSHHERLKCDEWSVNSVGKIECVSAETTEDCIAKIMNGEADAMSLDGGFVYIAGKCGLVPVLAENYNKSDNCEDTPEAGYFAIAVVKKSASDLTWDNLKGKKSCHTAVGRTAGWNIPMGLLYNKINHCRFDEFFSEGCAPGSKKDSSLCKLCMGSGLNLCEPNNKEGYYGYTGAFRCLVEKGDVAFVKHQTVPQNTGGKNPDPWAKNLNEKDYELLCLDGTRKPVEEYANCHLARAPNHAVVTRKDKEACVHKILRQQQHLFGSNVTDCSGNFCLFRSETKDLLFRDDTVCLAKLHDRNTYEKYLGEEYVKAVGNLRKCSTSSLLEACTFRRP
substance,measurement,setting,value
recombinant transferrin binding protein B (r-Tbp-B) from Neisseria meningitidis serogroup C / serotype 2a (strain FAM18) (receptor),Kd,[1],8.1 nM and 21 nM and 19 nM
same,koff,[1],0.019 s⁻¹ and 0.009 s⁻¹
same,Kd,[2],8.1 nM and 19 nM and 22 nM
same,koff,[2],0.02 s⁻¹ and 0.009 s⁻¹
same,Kd,[3],7.55 nM and 16.3 nM and 18.3 nM
same,koff,[3],0.0187 s⁻¹ and 0.0081 s⁻¹ and 0.0083 s⁻¹
same,Kd,[4],7.92 nM and 18.6 nM and 19.5 nM
same,koff,[4],0.019 s⁻¹ and 0.009 s⁻¹
